Results: the Immune Epitope Database (IEDB)
pKd: −log10 of the molar value.

Columns and labels:
Experiment in all cases: IEDB peptide-MHC binding, purified MHC/competitive/radioactivity; filed as Kd, often an IC50 or EC50 that approximates it; ≥ and ≤ were set here for values at or beyond the usual limits of such assays
HLA-A*11:01 = target: HLA-A*11:01
HLA-A*31:01 = target: HLA-A*31:01
HLA-A*33:01 = target: HLA-A*33:01
HLA-A*68:01 = target: HLA-A*68:01
HLA-A*03:01 = target: HLA-A*03:01
[1] = source organism: SARS coronavirus Tor2
[2] = source organism: Vaccinia virus WR
[3] = source organism: Dengue virus 2 Jamaica/1409/1983
[4] = source organism: Dengue virus 1 Brazil/97-11/1997
[5] = source organism: Dengue virus 3 Martinique/1243/1999
[6] = source organism: Mammarenavirus machupoense
[7] = source organism: Lassa virus Josiah

| Sequence | pKd (HLA-A*11:01; [2]) | pKd (HLA-A*31:01; [2]) | pKd (HLA-A*33:01; [2]) | pKd (HLA-A*68:01; [2]) | pKd (HLA-A*03:01; [2]) | further results |
| --- | --- | --- | --- | --- | --- | --- |
| AAAYFVGYLK | – | – | – | – | – | pKd (HLA-A*11:01; [1]): 9.36; pKd (HLA-A*31:01; [1]): 6.55; pKd (HLA-A*33:01; [1]): 5.25; pKd (HLA-A*68:01; [1]): 8.97; pKd (HLA-A*03:01; [1]): 8.03 |
| AAKYVEHDPR | ≤ 4.41 | 6.77 | 5.83 | 6.60 | ≤ 4.51 | – |
| AARGYISTR | – | – | – | – | – | pKd (HLA-A*31:01; [3]): 7.95; pKd (HLA-A*33:01; [3]): 6.50 |
| AGLAFSLMK | – | – | – | – | – | pKd (HLA-A*11:01; [4]): 7.95 |
| AIDAYPLTK | – | – | – | – | – | pKd (HLA-A*11:01; [1]): 7.94; pKd (HLA-A*31:01; [1]): 5.05; pKd (HLA-A*33:01; [1]): ≤ 4.35; pKd (HLA-A*68:01; [1]): 5.16 |
| AIGTSITQK | – | – | – | – | – | pKd (HLA-A*11:01; [4]): 7.22; pKd (HLA-A*03:01; [4]): 8.03 |
| ALTALNDMGK | – | – | – | – | – | pKd (HLA-A*11:01; [3]): 5.86; pKd (HLA-A*03:01; [3]): 5.89 |
| AQGLVASIK | – | – | – | – | – | pKd (HLA-A*11:01; [1]): 6.68; pKd (HLA-A*31:01; [1]): 5.00; pKd (HLA-A*33:01; [1]): ≤ 4.50; pKd (HLA-A*68:01; [1]): ≤ 4.49; pKd (HLA-A*03:01; [1]): 6.18 |
| ATKSEHTGR | – | – | – | – | – | pKd (HLA-A*31:01; [5]): 8.73 |
| ATMLDVDLR | – | – | – | – | – | pKd (HLA-A*11:01; source organism: Dengue virus 1 Singapore/S275/1990): 7.38 |
| ATRLENIMWK | – | – | – | – | – | pKd (HLA-A*11:01; [4]): 8.20; pKd (HLA-A*03:01; [4]): 7.37 |
| ATSRTLSYYK | – | – | – | – | – | pKd (HLA-A*11:01; [1]): 8.50; pKd (HLA-A*31:01; [1]): 7.83; pKd (HLA-A*33:01; [1]): 5.21; pKd (HLA-A*68:01; [1]): 7.82; pKd (HLA-A*03:01; [1]): 8.48 |
| AVLDMCAALK | – | – | – | – | – | pKd (HLA-A*11:01; [1]): 8.22; pKd (HLA-A*31:01; [1]): 7.09; pKd (HLA-A*33:01; [1]): 6.12; pKd (HLA-A*68:01; [1]): 6.93; pKd (HLA-A*03:01; [1]): 7.89 |
| CQFDHVNTLH | – | – | – | – | – | pKd (HLA-A*11:01; [6]): 5.06; pKd (HLA-A*31:01; [6]): 5.71; pKd (HLA-A*68:01; [6]): 5.03; pKd (HLA-A*03:01; [6]): 4.74 |
| DAKNDDWKK | 5.51 | ≤ 4.44 | 5.55 | 6.98 | 5.08 | – |
| DFDNLIGVR | ≤ 4.11 | 5.10 | 7.06 | 4.97 | ≤ 4.11 | – |
| DSFLRKIGDK | 4.93 | 5.45 | 5.71 | 5.20 | ≤ 4.23 | – |
| DTSNNIAEY | ≤ 5.30 | ≤ 4.45 | 5.12 | 8.56 | ≤ 4.11 | – |

| Sequence | pKd (HLA-A*11:01; [2]) | pKd (HLA-A*31:01; [2]) | pKd (HLA-A*33:01; [2]) | pKd (HLA-A*68:01; [2]) | pKd (HLA-A*03:01; [2]) | further results |
| --- | --- | --- | --- | --- | --- | --- |
| DVFFIPPEK | – | – | – | – | – | pKd (HLA-A*68:01; source organism: Dengue virus 2 16681-PDK53): 8.44 |
| EALEYLSELK | 6.65 | 4.75 | 5.25 | 6.98 | 6.34 | – |
| EFGKAKGSR | – | – | – | – | – | pKd (HLA-A*33:01; [5]): 6.90 |
| EFKEFAAGR | – | – | – | – | – | pKd (HLA-A*68:01; [3]): 6.23 |
| ELYDTSPTK | 7.04 | ≤ 4.11 | ≤ 4.36 | 8.39 | 7.98 | – |
| EQQQSFMPK | 7.95 | 5.28 | 5.26 | 6.88 | 5.67 | – |
| EVGSIRCVKY | ≤ 4.16 | ≤ 4.33 | ≤ 4.32 | 5.82 | ≤ 4.15 | – |
| EVTNPAVLR | – | – | – | – | – | pKd (HLA-A*33:01; [4]): 7.04; pKd (HLA-A*68:01; [4]): 7.40 |
| FLMSGKGIGK | – | – | – | – | – | pKd (HLA-A*11:01; [3]): 7.00; pKd (HLA-A*03:01; [3]): 7.37 |
| FSLESDSIK | 6.25 | 6.02 | 5.65 | 6.73 | 5.80 | – |
| FSTSAADIKR | 6.61 | 4.95 | ≤ 4.65 | 7.78 | 4.74 | – |
| GANYLGKPK | – | – | – | – | – | pKd (HLA-A*11:01; [1]): 5.97; pKd (HLA-A*31:01; [1]): 5.83; pKd (HLA-A*33:01; [1]): ≤ 4.11; pKd (HLA-A*68:01; [1]): 5.46; pKd (HLA-A*03:01; [1]): 6.29 |
| GMLQGRGPLK | – | – | – | – | – | pKd (HLA-A*11:01; [3]): 7.42; pKd (HLA-A*03:01; [3]): 8.21 |
| GVTLFFLSGK | – | – | – | – | – | pKd (HLA-A*11:01; [4]): 7.62; pKd (HLA-A*03:01; [4]): 7.88 |
| GVVRVWDVK | – | – | – | – | – | pKd (HLA-A*11:01; [7]): 7.95; pKd (HLA-A*31:01; [7]): ≤ 4.35; pKd (HLA-A*33:01; [7]): ≤ 4.62; pKd (HLA-A*68:01; [7]): 6.89; pKd (HLA-A*03:01; [7]): 5.24 |
| HIASKINNNR | 5.39 | 6.02 | 5.23 | 7.73 | 5.71 | – |
| HIVCSKTVK | 5.80 | 6.21 | ≤ 4.48 | 6.93 | 6.54 | – |
| HMIVGRQEK | – | – | – | – | – | pKd (HLA-A*03:01; [3]): 7.18 |
